According to the Immune Epitope Database (IEDB):

Assays:
HLA-A*24:02 = test: IEDB peptide-MHC binding, purified MHC/competitive/fluorescence; ≥ and ≤ were set here for values at or beyond the usual limits of such assays; conditions: source organism: Zaire ebolavirus
HLA-A*01:01 [1] = test: as above
HLA-C*07:02 = test: IEDB peptide-MHC binding, purified MHC/direct/fluorescence; filed as Kd, often an IC50 or EC50 that approximates it; ≥ and ≤ were set here for values at or beyond the usual limits of such assays; conditions: source organism: Mycobacterium tuberculosis variant bovis BCG str. Pasteur 1173P2
HLA-C*03:03 = test: as above
HLA-B*46:01 = test: IEDB peptide-MHC binding, purified MHC/competitive/fluorescence; filed as Kd, often an IC50 or EC50 that approximates it; ≥ and ≤ were set here for values at or beyond the usual limits of such assays; conditions: source organism: Mycobacterium tuberculosis variant bovis BCG str. Pasteur 1173P2
HLA-A*69:01 = test: IEDB peptide-MHC binding, purified MHC/direct/fluorescence; filed as Kd, often an IC50 or EC50 that approximates it; ≥ and ≤ were set here for values at or beyond the usual limits of such assays
HLA-A*02:01 [2] = test: as above
HLA-C*05:01 = test: as above
HLA-B*51:01 [3] = test: as above; conditions: source organism: Giardia lamblia ATCC 50803
HLA-B*15:42 = test: IEDB peptide-MHC binding, purified MHC/competitive/fluorescence; filed as Kd, often an IC50 or EC50 that approximates it; ≥ and ≤ were set here for values at or beyond the usual limits of such assays; conditions: source organism: Giardia lamblia ATCC 50803
HLA-B*83:01 = test: as above; conditions: source organism: Giardia lamblia ATCC 50803
HLA-B*45:06 = test: as above; conditions: source organism: Giardia lamblia ATCC 50803
HLA-A*26:01 = test: IEDB peptide-MHC binding, purified MHC/direct/fluorescence; filed as Kd, often an IC50 or EC50 that approximates it; ≥ and ≤ were set here for values at or beyond the usual limits of such assays
HLA-B*18:01 = test: as above; conditions: source organism: Camelpox virus M-96
HLA-B*58:01 = test: as above
HLA-B*15:01 [4] = test: as above
HLA-A*24:03 = test: as above
HLA-A*68:02 [5] = test: as above; conditions: source organism: Camelpox virus M-96
HLA-A*11:01 [6] = test: as above
HLA-A*26:03 = test: as above; conditions: source organism: Variola virus
HLA-B*08:02 = test: as above; conditions: source organism: Variola virus
HLA-A*26:02 = test: as above; conditions: source organism: Variola virus
HLA-B*15:17 = test: as above
HLA-B*57:01 = test: as above
HLA-A*01:01 [7] = test: as above
HLA-A*31:01 [8] = test: as above
HLA-B*07:02 [9] = test: IEDB peptide-MHC binding, purified MHC/competitive/fluorescence; filed as Kd, often an IC50 or EC50 that approximates it; ≥ and ≤ were set here for values at or beyond the usual limits of such assays; conditions: source organism: Variola virus
HLA-B*08:01 [10] = test: as above; conditions: source organism: Variola virus
HLA-A*02:12 = test: IEDB peptide-MHC binding, purified MHC/direct/fluorescence; filed as Kd, often an IC50 or EC50 that approximates it; ≥ and ≤ were set here for values at or beyond the usual limits of such assays
HLA-A*02:50 = test: IEDB peptide-MHC binding, purified MHC/competitive/fluorescence; filed as Kd, often an IC50 or EC50 that approximates it; ≥ and ≤ were set here for values at or beyond the usual limits of such assays
HLA-B*35:01 = test: as above; conditions: source organism: West Nile virus
HLA-B*51:01 [11] = test: as above
HLA-A*02:01 [12] = test: IEDB peptide-MHC binding, purified MHC/competitive/fluorescence; ≥ and ≤ were set here for values at or beyond the usual limits of such assays; conditions: source organism: Zaire ebolavirus
HLA-A*03:01 [13] = test: IEDB peptide-MHC binding, purified MHC/direct/fluorescence; filed as Kd, often an IC50 or EC50 that approximates it; ≥ and ≤ were set here for values at or beyond the usual limits of such assays; conditions: source organism: Salmonella enterica
HLA-B*07:02 [14] = test: as above; conditions: source organism: Salmonella enterica
HLA-B*27:05 = test: as above; conditions: source organism: Salmonella enterica
HLA-B*44:02 = test: as above; conditions: source organism: Salmonella enterica
HLA-B*40:01 = test: as above; conditions: source organism: Salmonella enterica
HLA-B*08:01 [15] = test: as above; conditions: source organism: Salmonella enterica
HLA-A*68:02 [16] = test: IEDB peptide-MHC binding, purified MHC/competitive/fluorescence; filed as Kd, often an IC50 or EC50 that approximates it; ≥ and ≤ were set here for values at or beyond the usual limits of such assays; conditions: source organism: Entamoeba histolytica HM-1:IMSS
HLA-A*03:01 [17] = test: IEDB peptide-MHC binding, purified MHC/competitive/fluorescence; ≥ and ≤ were set here for values at or beyond the usual limits of such assays; conditions: source organism: Vaccinia virus Copenhagen
HLA-B*15:01 [18] = test: as above; conditions: source organism: Vaccinia virus Copenhagen
HLA-A*11:01 [19] = test: as above; conditions: source organism: Vaccinia virus Copenhagen
HLA-A*33:01 = test: IEDB peptide-MHC binding, purified MHC/competitive/radioactivity; filed as Kd, often an IC50 or EC50 that approximates it; ≥ and ≤ were set here for values at or beyond the usual limits of such assays; conditions: source organism: Vaccinia virus WR
HLA-A*68:01 = test: as above; conditions: source organism: Vaccinia virus WR
HLA-A*31:01 [20] = test: as above; conditions: source organism: Vaccinia virus WR
[21] = source organism: Zaire ebolavirus
[22] = source organism: Marburg virus - Musoke, Kenya, 1980
[23] = source organism: Giardia lamblia ATCC 50803
[24] = source organism: Camelpox virus M-96
[25] = source organism: Vibrio vulnificus CMCP6
[26] = source organism: Vibrio vulnificus
[27] = source organism: West Nile virus
[28] = source organism: Salmonella enterica
[29] = source organism: Salmonella enterica subsp. enterica serovar Typhimurium
[30] = source organism: Mammarenavirus juninense
[31] = source organism: Vaccinia virus
[32] = source organism: Burkholderia mallei
[33] = source organism: Burkholderia mallei ATCC 23344

Sequence: EIDTTIGEW
- IC50 (HLA-A*24:02): ≥ 81700 nM
- IC50 (HLA-A*01:01 [1]; [21]): ≥ 494000 nM

Sequence: FLLDGGAPF
- Kd (HLA-C*07:02): 527 nM
- Kd (HLA-C*03:03; source organism: Mycobacterium tuberculosis variant bovis BCG str. Pasteur 1173P2): ≤ 1 nM
- Kd (HLA-B*46:01): 21.2 nM

Sequence: FLLDYEGTL
- Kd (HLA-A*69:01; [22]): 437 nM
- Kd (HLA-A*02:01 [2]; [22]): 6 nM
- Kd (HLA-C*03:03; source organism: Orthomarburgvirus marburgense): ≤ 1 nM

Sequence: FPMIIGSEL
- Kd (HLA-C*05:01; [23]): ≥ 20000 nM
- Kd (HLA-B*51:01 [3]): 2130 nM
- Kd (HLA-B*15:42): ≥ 5000 nM
- Kd (HLA-B*83:01): 156 nM
- Kd (HLA-B*45:06): ≥ 5000 nM

Sequence: IFLIITKVF
- Kd (HLA-A*26:01; source organism: Variola virus): ≥ 20000 nM
- Kd (HLA-B*18:01): ≥ 20000 nM
- Kd (HLA-B*58:01; [24]): ≥ 20000 nM
- Kd (HLA-B*15:01 [4]; [24]): ≥ 20000 nM
- Kd (HLA-A*24:03; [24]): 1100 nM
- Kd (HLA-A*68:02 [5]): ≥ 20000 nM
- Kd (HLA-A*69:01; [24]): ≥ 20000 nM
- Kd (HLA-A*11:01 [6]; [24]): ≥ 20000 nM
- Kd (HLA-A*26:03): ≥ 20000 nM
- Kd (HLA-A*02:01 [2]; [24]): ≥ 20000 nM
- Kd (HLA-B*08:02): ≥ 20000 nM
- Kd (HLA-A*26:02): ≥ 20000 nM
- Kd (HLA-B*15:17; [24]): ≥ 20000 nM
- Kd (HLA-B*57:01; [24]): ≥ 20000 nM
- Kd (HLA-A*01:01 [7]; [24]): ≥ 20000 nM
- Kd (HLA-A*31:01 [8]; [24]): ≥ 20000 nM
- Kd (HLA-B*07:02 [9]): 3000 nM
- Kd (HLA-B*08:01 [10]): ≥ 20000 nM

Sequence: KIDDMIEEV
- Kd (HLA-C*05:01; source organism: Vaccinia virus WR): 124 nM

Sequence: KLTSYSAGL
- Kd (HLA-A*02:12; [25]): 7 nM
- Kd (HLA-A*69:01; [26]): 15100 nM
- Kd (HLA-A*02:01 [2]; [26]): 21 nM
- Kd (HLA-A*02:50; [25]): ≤ 0.1 nM

Sequence: LAVSAYTPW
- Kd (HLA-B*15:17; [27]): 5 nM
- Kd (HLA-B*57:01; [27]): 86 nM
- Kd (HLA-C*03:03; [27]): ≤ 1 nM
- Kd (HLA-B*35:01): 5.7 nM
- Kd (HLA-B*51:01 [11]; [27]): ≥ 20000 nM

Sequence: LFEVDNLTY
- IC50 (HLA-A*02:01 [12]): ≥ 210000 nM
- IC50 (HLA-A*24:02): 66500 nM
- IC50 (HLA-A*01:01 [1]; [21]): 69100 nM

Sequence: LLQGVPFHV
- Kd (HLA-A*26:01; [28]): ≥ 20000 nM
- Kd (HLA-A*03:01 [13]): ≥ 20000 nM
- Kd (HLA-B*58:01; [28]): ≥ 20000 nM
- Kd (HLA-B*15:01 [4]; [28]): ≥ 20000 nM
- Kd (HLA-B*07:02 [14]): ≥ 20000 nM
- Kd (HLA-A*24:03; [28]): ≥ 20000 nM
- Kd (HLA-A*69:01; [29]): 289 nM
- Kd (HLA-A*11:01 [6]; [28]): ≥ 20000 nM
- Kd (HLA-A*02:01 [2]; [29]): 109 nM
- Kd (HLA-B*27:05): ≥ 20000 nM
- Kd (HLA-B*44:02): ≥ 20000 nM
- Kd (HLA-B*40:01): ≥ 20000 nM
- Kd (HLA-B*08:01 [15]): ≥ 20000 nM
- Kd (HLA-A*01:01 [7]; [28]): ≥ 20000 nM
- Kd (HLA-A*31:01 [8]; [29]): 1810 nM
- Kd (HLA-A*02:50; source organism: Salmonella enterica subsp. enterica serovar Paratyphi B str. SPB7): ≤ 0.1 nM

Sequence: MPVSIPTPI
- Kd (HLA-C*05:01; [23]): ≥ 20000 nM
- Kd (HLA-B*51:01 [11]; [23]): 340 nM

Sequence: MVPKSFTYS
- Kd (HLA-A*68:02 [16]): 76.2 nM

Sequence: RATQPAAEF
- Kd (HLA-B*58:01; [30]): 12.9 nM
- Kd (HLA-C*05:01; [30]): 1740 nM

Sequence: TLNHNCINV
- Kd (HLA-A*02:12; [31]): 19 nM
- Kd (HLA-A*69:01; source organism: Cowpox virus): 136 nM
- Kd (HLA-A*02:01 [2]; source organism: Cowpox virus): 404 nM
- Kd (HLA-A*02:50; [31]): 0.2 nM

Sequence: VTAASPMLY
- IC50 (HLA-A*03:01 [17]): 10500 nM
- IC50 (HLA-B*15:01 [18]): 4450 nM
- IC50 (HLA-A*11:01 [19]): 1170 nM
- IC50 (HLA-A*01:01 [1]; source organism: Vaccinia virus Copenhagen): 1290 nM
- Kd (HLA-A*33:01): 14500 nM
- Kd (HLA-A*68:01): 861 nM
- Kd (HLA-A*31:01 [20]): ≥ 77900 nM

Sequence: YLACKQHAL
- Kd (HLA-A*69:01; [32]): 292 nM
- Kd (HLA-A*02:01 [2]; [32]): 62.5 nM
- Kd (HLA-C*03:03; [33]): 24 nM
- Kd (HLA-A*02:50; [33]): ≤ 0.1 nM
